The target of the assay is recombinant human IL-8 (interleukin-8) (human). Kind of assay: SPR; Biacore; IL-8 immobilised on a CM5 chip by amine coupling (Fc2), BSA on the reference cell (Fc1); soluble recombinant Mtb proteins as analytes at 2.5, 5, 10 and 20 uM; 22 °C, PBS pH 7.4 with 0.005% P20; flow 5 ul/min; one-to-one model.

Chain of recombinant M. tuberculosis rSahH (His-tagged, from pHis-sahH) (P9WGV3 whole entry): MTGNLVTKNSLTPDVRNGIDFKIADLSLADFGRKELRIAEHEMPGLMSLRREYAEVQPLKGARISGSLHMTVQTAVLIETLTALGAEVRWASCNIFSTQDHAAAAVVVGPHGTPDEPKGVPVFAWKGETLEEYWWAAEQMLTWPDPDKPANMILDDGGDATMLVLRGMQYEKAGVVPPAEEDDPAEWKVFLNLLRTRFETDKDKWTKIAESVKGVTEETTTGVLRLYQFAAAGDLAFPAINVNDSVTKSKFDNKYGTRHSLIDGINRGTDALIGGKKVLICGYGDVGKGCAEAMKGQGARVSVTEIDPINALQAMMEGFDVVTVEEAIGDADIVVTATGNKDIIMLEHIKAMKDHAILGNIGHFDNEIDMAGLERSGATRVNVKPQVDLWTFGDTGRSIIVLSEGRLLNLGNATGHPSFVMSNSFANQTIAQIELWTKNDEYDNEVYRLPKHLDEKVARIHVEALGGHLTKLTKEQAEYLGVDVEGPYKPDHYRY

As a reminder, the Kd is the free concentration of one partner at which half of the binding sites on the other are occupied at equilibrium, for simple one-to-one binding. With “recombinant M. tuberculosis rSahH (His-tagged, from pHis-sahH) (from UniProt P9WGV3 1-495) (enzyme)”, the Kd was found to be 0.714 nM.

Source of the values: article PMC4734655.
